Tested on: MS2 coat protein
Test: apparent KD of MS2 coat protein; designed switch direction (-1 OFF switch, 1 ON switch): -1; higher = weaker reporter binding
Outline: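 Stalled E. coli RNA polymerase transcribed designed RNA switches on Illumina chips, which were then titrated with SNAP-549-labelled MS2 coat protein, doubling from 0.7 or 1.5 nM to 3 µM. Steps lasted from 0.8–1.5 h at the lowest concentration to 10–20 min at the highest. The apparent KD is each design's median over clusters of curve-fitted normalised fluorescence.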

[1] = input ligand: microRNA oligo, concentration not stated
[2] = Eterna round: R95, input ligand: FMN 200 uM
[3] = Eterna round: R95, input ligand: microRNA oligo, concentration not stated
[4] = Eterna round: R95, input ligand: none

Row | Sequence | apparent KD of MS2 coat protein (input ligand: FMN 200 uM) [nM] | apparent KD of MS2 coat protein (input ligand: none) [nM] | apparent KD of MS2 coat protein [1] [nM] | apparent KD of MS2 coat protein [2] [nM] | apparent KD of MS2 coat protein [3] [nM] | apparent KD of MS2 coat protein [4] [nM]
1 | AGUAUGCGGCAGGAUAUCCAUCCGCGAAAAGGUGGAGAAGGGCUGACAUGAGGAUCACCCAUGUGCGUCCUGUA [salish99_ex6_r4_030] (Eterna round: R97, puzzle: Exclusion 6) | 25.3 | 17.7 | – | – | – | –
2 | AGUCAAACGGUAGGAUAUCCAUAUCGAGUGACCCUUUCAUAACAUGAGGAUCACCCAUGUCGGUGGGAGAAGGGCCGUAAGGCA [Mat - Exclusion NG 2 - Mod of JL - D70] (Eterna round: R96, puzzle: Exclusion NG 2) | 99.6 | 52.4 | 43.1 | – | – | –
3 | AGUCAAGAUGAGGAUAUCCGUGUAACAAACGCAGGAGAAGGCGUCACAUGAGGAUCACCCAUGUUGCCUCUAAG [Eternabot (L1) Solution 92] (Eterna round: R97, puzzle: Exclusion 6) | 45.9 | 58.1 | – | – | – | –
4 | AGUCAGGCGGUAGGAUAUCCAAAUCGAGUGACCCUUUCAUAACAUGAGGAUCACCCAUGUCGGUGGGAGAAGGGCCGUACGGCG [JL ViennaUCT Atra mod 3] (Eterna round: R96, puzzle: Exclusion NG 2) | 232 | 104 | 88 | – | – | –
5 | AGUCCACUUACAAGCUUUUACAUGAGGAUCACCCAUGUGUGGGACCCUAAGGGUGCUCAUGACCGCUCCAUACUCUC [Eternabot (L1) Solution 4] (Eterna round: R97, puzzle: Sensor, turn-off variant 1) | 240 | 254 | – | – | – | –
6 | AGUCGGUCAGGAUAUGCAAACGUGGACAUGAGGAUCACCCAUGUAACGUGGGCCUGGUUUGUAGAAGGGACGAGCA [EX5 #86] (Eterna round: R97, puzzle: Exclusion 5) | 35.1 | 34.5 | – | – | – | –
7 | AGUCGUAGACAGGAUAUGCGGCUAAUAAAUAAAGCAGAAGGGUCUACUUGAGGAUCACCCAAGUGGGCGGUUAA [jl-ex6-4.19 ViennaUCT mod] (Eterna round: R97, puzzle: Exclusion 6) | 104 | 20.8 | – | – | – | –
8 | AGUGCGUAUGUGAGGAUAUGCUGGUCCUUGGAUCAGCAGAAGGCACAUGAGGAUCACCCAUGUGGUGUCGUACG [salish99_Bmod_Ex4_004] (puzzle: Brourd's mod of Exclusion 4) | – | – | – | 245 | 51.8 | 60
9 | AGUGUGGAGACAGGAUAUGAGAAUAGAUAGAAAUCAGAAGGGUCACAUGAGGAUCACCCAUGUAAAGUCUUGAGGAUGAGUGAU [Prohibition 2 - Jieux - Exclusion NG 1] (Eterna round: R96, puzzle: Exclusion NG 1) | 263 | 88.8 | 63.9 | – | – | –
10 | AGUGUGUGGCAGGAUAUGCGAUUUGUAGGUGAAGCAGAAGGGUCUACAUGAGGAUCACCCAUGUGUGCGGUUGA [Ex6 #18] (Eterna round: R97, puzzle: Exclusion 6) | 457 | 216 | – | – | – | –
11 | AGUUGGCGAGGAUAUACAUGAGGAUCACCCAUGUGAGAGAAAAAAGUGAGGAAGAAAAGUAGAAGGCGCUGACG [salish99_ex3_r3_040] (puzzle: Exclusion 3) | – | – | – | 61.2 | 38.5 | 40.1
12 | AGUUGGCGAGGAUAUACAUGAGGAUCACCCAUGUGAGAGAUACUAGUGAGGUCGAUUAGGAGAAGGCGCUGACA [Mat X3R4 m20] (Eterna round: R97, puzzle: Exclusion 3) | 63.1 | 48 | – | – | – | –
13 | AGUUGGCGAGGAUAUACAUGAGGAUCACCCAUGUGAGAGAUACUAGUGAGGUCGAUUAGUAGAAGGCGCUGACA [Mat - Exclusion 3 - Mod of JL D77] (puzzle: Exclusion 3) | – | – | – | – | 31.6 | –
14 | AUAAAGAAUGUUAGGAUAUUGGUGAAUAGGCUGACUAAGAAGGAACAUGAGGAUCACCCAUGUAAAAUGGAAAA [Readima] (puzzle: Brourd's mod of Exclusion 4) | – | – | – | 66.7 | 23 | 29.1
15 | AUAAAGUGAGGAUAUAUAAGACACGGUGAUACACCGUGAAAAUAGAAGGUACAUGAGGAUCACCCAUGUAGGGC [Mod of Anonveat 18 - Jieux - Exclusion 4] (Eterna round: R97, puzzle: Exclusion 4) | 33.6 | 29.4 | – | – | – | –
16 | AUAAAGUGAGGAUAUAUAAGACACGGUGAUACACCGUGAAAAUAGAAGGUACAUGAGGAUCACCCAUGUUGGGC [Mod of Anonveat 19 - Jieux - Exclusion 4] (Eterna round: R97, puzzle: Exclusion 4) | 50.2 | 53.7 | – | – | – | –
17 | AUAAAUCAUGUAGGAUAUGCGUAGCGAAGCUAUGCAGAAGGACAUGAGGAUCACCCAUGUCUUUCCGUCUGCGAACAGACGGAA [Mat - Exclusion NG 1 - Mod of JL - D43] (Eterna round: R96, puzzle: Exclusion NG 1) | 199 | 31.6 | 20 | – | – | –
18 | AUAACAAGCUUUUUUUUCGUCGUAUAUGACGCUCGAGUCACAUGAGGAUCACCCAUGUCUUCCUGUUUGAUUGUUGA [JR_SV3TOV2_Sub057] (puzzle: Sensor v3, turn-off variant 2) | – | – | – | 167 | 154 | 173
19 | AUAAGUAUGAAGGAUAUGCGCGAGCCAGCUUGGGCAGAAGGUUAAACAUGAGGAUCACCCAUGUGGAAAUCCGA [Eternabot (Original) Solution 34] (Eterna round: R97, puzzle: Exclusion 6) | 32.9 | 21.7 | – | – | – | –
20 | AUAAUGUAAGGAUAUCAGUCGACUAGCCUCGGCUAGUCGACUGAGAAGGUACAUGAGGAUCACCCAUGUGAAUA [E4/16-A2] (Eterna round: R97, puzzle: Exclusion 4) | 228 | 52.1 | – | – | – | –
21 | AUAAUGUAAGGAUAUCAGUCGACUAGCUUCGGCUAGUCGACUGAGAAGGUACAUGAGGAUCACCCAUGUGGUUC [E4/11-A1] (Eterna round: R97, puzzle: Exclusion 4) | 118 | 985 | – | – | – | –
22 | AUAAUGUCAGGAUAUCAGAAGUUUAACUUCGGUUAAACUUCUGAGAAGGGACAUGAGGAUCACCCAUGUGAUUA [E4/3-B1] (Eterna round: R97, puzzle: Exclusion 4) | 109 | 1330 | – | – | – | –
23 | AUAAUUAAUCGAGGAUAUCAGCACGAUUAGUGCUGAGAAGGCGACAUGAGGAUCACCCAUGUGAUCAAUUAAUAUUAAUAUUAU [ENG1/11-C1] (Eterna round: R96, puzzle: Exclusion NG 1) | 1630 | 808 | 626 | – | – | –
24 | AUAAUUAAUGCAGGAUAUCAGCACGAUUAGUGCUGAGAAGGGCACAUGAGGAUCACCCAUGUGAUCAAUUAAUAUUAAUAUUAU [ENG1/11-D1] (Eterna round: R96, puzzle: Exclusion NG 1) | 279 | 61.6 | 53 | – | – | –
25 | AUACAACAUGAGGAUCACCCAUGUGAGGAUAUGCGAUAUAUCAUCAUCAUAAUCAUAAGCAGAAGGCACAACAU [Another One] (puzzle: Exclusion 1) | – | – | – | 35.7 | 35.6 | 34
26 | AUACAGGAUGUCAGGAUAUGUUGUAGGUUCCGACGACAGAAGGGACAUGAGGAUCACCCAUGUAGGCCUUUGCU [BmEX4 C.7] (Eterna round: R97, puzzle: Brourd's mod of Exclusion 4) | 31.4 | 15.1 | – | – | – | –
27 | AUAUAACAUGAGGAUCACCCAUGUCAGGAUAUGCAGAACAAGAACAAGACAAGACAGAGCAGAAGGGACAAUAU [Ex 1 M4] (puzzle: Exclusion 1) | – | – | – | 43.8 | 34.9 | 48.1
28 | AUAUAGCGAGGAUAUACAUGAGGAUCACCCAUGUAAUAAAUAUAUAUAUUUAUAUUAUGUAGAAGGCGCUAUAU [-18.5, -17.2 kcal, 39% A] (Eterna round: R97, puzzle: Exclusion 3) | 30.3 | 14.5 | – | – | – | –
29 | AUAUCGUGAGGAUAUCCAAUAUAUGACAUGAGGAUCACCCAUGUUUCCACUCGUACCUCCGGAGAAGGCACAGUUA [Ex5 #72] (Eterna round: R97, puzzle: Exclusion 5) | 23.9 | 24.5 | – | – | – | –
30 | AUAUUAAUAGUAAGGAUAUGCGUAUAUAUAGUUAUGCAGAAGGUACAUGAGGAUCACCCAUGUAUUAAUGUGUA [LRO-BmodExc4-03-Oppy's Opus] (Eterna round: R97, puzzle: Brourd's mod of Exclusion 4) | 14.9 | 14.3 | – | – | – | –
